Assay results taken from patent US20250333512A1 (PLANTVAX, published 2025).

B1: Nb PGT121 (antibody)
heavy: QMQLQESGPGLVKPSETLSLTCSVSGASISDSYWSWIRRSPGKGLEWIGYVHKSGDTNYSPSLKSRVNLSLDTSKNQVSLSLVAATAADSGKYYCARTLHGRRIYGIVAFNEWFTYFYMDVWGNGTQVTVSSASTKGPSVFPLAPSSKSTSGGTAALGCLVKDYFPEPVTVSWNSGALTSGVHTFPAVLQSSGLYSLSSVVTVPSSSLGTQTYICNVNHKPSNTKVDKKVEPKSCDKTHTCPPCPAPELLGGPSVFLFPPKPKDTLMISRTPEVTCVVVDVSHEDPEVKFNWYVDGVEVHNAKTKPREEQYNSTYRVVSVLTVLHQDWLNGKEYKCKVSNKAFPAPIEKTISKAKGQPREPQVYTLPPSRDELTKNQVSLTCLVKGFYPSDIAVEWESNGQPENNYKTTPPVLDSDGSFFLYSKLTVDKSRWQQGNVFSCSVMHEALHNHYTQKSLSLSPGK
light: SDISVAPGETARISCGEKSLGSRAVQWYQHRAGQAPSLIIYNNQDRPSGIPERFSGSPDSPFGTTATLTITSVEAGDEADYYCHIWDSRVPTKWVFGGGTTLTVLRTVAAPSVFIFPPSDEQLKSGTASVVCLLNNFYPREAKVQWKVDNALQSGNSQESVTEQDSKDSTYSLSSTLTLSKADYEKHKVYACEVTHQGLSSPVTKSFNRGEC
modifications: Plant-type N-glycan at heavy-chain N312 (EU N297); letters unchanged.
B2: Nb PGT121-LS (antibody)
heavy: QMQLQESGPGLVKPSETLSLTCSVSGASISDSYWSWIRRSPGKGLEWIGYVHKSGDTNYSPSLKSRVNLSLDTSKNQVSLSLVAATAADSGKYYCARTLHGRRIYGIVAFNEWFTYFYMDVWGNGTQVTVSSASTKGPSVFPLAPSSKSTSGGTAALGCLVKDYFPEPVTVSWNSGALTSGVHTFPAVLQSSGLYSLSSVVTVPSSSLGTQTYICNVNHKPSNTKVDKKVEPKSCDKTHTCPPCPAPELLGGPSVFLFPPKPKDTLMISRTPEVTCVVVDVSHEDPEVKFNWYVDGVEVHNAKTKPREEQYNSTYRVVSVLTVLHQDWLNGKEYKCKVSNKAFPAPIEKTISKAKGQPREPQVYTLPPSRDELTKNQVSLTCLVKGFYPSDIAVEWESNGQPENNYKTTPPVLDSDGSFFLYSKLTVDKSRWQQGNVFSCSVLHEALHSHYTQKSLSLSPGK
light: B1 light
modifications: Plant-type N-glycan (partly unoccupied) at heavy-chain N312 (EU N297); letters unchanged.

Legend:
Assay in all cases: cell-based or functional assay
[1] = biological target: chimeric receptor containing a rhesus macaque FcγRIII ectodomain and the CD3ζ intracellular signaling domain (rhesus macaque, UniProt A3RFZ7 21-206)
[2] = biological target: chimeric receptor containing a rhesus macaque FcγRI ectodomain and the CD3ζ intracellular signaling domain (rhesus macaque, UniProt A0A7G8YX43 16-293)
[3] = biological target: chimeric receptor containing a rhesus macaque FcγRIIB ectodomain and the CD3ζ intracellular signaling domain (rhesus macaque, UniProt A0A7G8YX88 43-217)
[4] = biological target: chimeric receptor containing a rhesus macaque FcγRIIA ectodomain and the CD3ζ intracellular signaling domain (rhesus macaque, UniProt A0A7G8YX83 34-216)

Chain of chimeric receptor containing a rhesus macaque FcγRIII ectodomain and the CD3ζ intracellular signaling domain (A3RFZ7 whole entry, change not shown, the tested form may be a part): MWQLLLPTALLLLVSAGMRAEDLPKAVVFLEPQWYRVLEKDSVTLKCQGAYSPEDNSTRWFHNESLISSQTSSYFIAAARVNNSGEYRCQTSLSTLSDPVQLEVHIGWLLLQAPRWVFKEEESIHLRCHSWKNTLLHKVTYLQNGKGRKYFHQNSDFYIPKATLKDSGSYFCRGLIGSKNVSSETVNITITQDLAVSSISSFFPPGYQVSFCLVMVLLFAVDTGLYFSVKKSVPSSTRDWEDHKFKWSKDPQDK

| Binder | EC50 (IL-2 ELISA) [1] [µg/mL] | EC50 (IL-2 ELISA) [2] [µg/mL] | EC50 (IL-2 ELISA) [3] [µg/mL] | EC50 (IL-2 ELISA) [4] [µg/mL] |
| --- | --- | --- | --- | --- |
| B1 | > 50 | ~0.71 | > 50 | > 50 |
| B2 | > 50 | 1.2 | > 50 | > 50 |
